Three substances from publication PMC8241838 can be followed below.

This assay concerns the target trimeric fusion protein PA-sfGFP-tLM511, O15230;P07942;P11047. The experiment in a line: flow cytometry on cells. As to conditions: 0.5 mM Mn2+; for response (arbitrary units/cell): 30 nM sfGFP-tLM511, parent: est. 3.0, read off a plot.

Consider “human α6β1 integrin transiently expressed on Expi293F cells, wild type (from UniProt P05556) α6:D205A”, for which the response (arbitrary units/cell) was found to be 1.4 and the ratio to parent is 4.8.
Turning to “human α6β1 integrin transiently expressed on Expi293F cells, wild type (from UniProt P05556) α6:E219A”, the ratio to parent is 10.7.
As for “human α6β1 integrin transiently expressed on Expi293F cells, wild type (from UniProt P05556) α6:E221A”, the response (arbitrary units/cell) came out at 2.1 and the ratio to parent came out at 2.6.
